Where a chain is given by its changes, count along the chain named.
Tests used:
AtBPC2 [1] = target: T1, AtBPC2 (Arabidopsis thaliana, UniProt Q9LDE2 1-279); assay: DPI-ELISA; DPI-ELISA: 2 pmol ds-bio DNA per well, crude E. coli extract in protein extraction buffer (HEPES, 100 mM salt per Additional file 1), 1 h, PBS-T washes pH 7.5; details: protein: recombinant; tags: N-terminal His (pET32b-GW); label: 5' biotin
T1 sequence: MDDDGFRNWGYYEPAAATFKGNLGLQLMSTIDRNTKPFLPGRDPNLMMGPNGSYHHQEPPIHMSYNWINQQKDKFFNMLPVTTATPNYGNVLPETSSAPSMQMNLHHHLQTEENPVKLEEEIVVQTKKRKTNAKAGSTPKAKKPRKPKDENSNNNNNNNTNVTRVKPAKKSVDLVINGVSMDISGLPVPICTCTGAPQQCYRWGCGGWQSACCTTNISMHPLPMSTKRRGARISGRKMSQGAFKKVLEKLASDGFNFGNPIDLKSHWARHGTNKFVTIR

AtbZIP63 = target: T2, AtbZIP63 (Arabidopsis thaliana, UniProt B9DGI8 1-314); assay: EMSA; DPI-ELISA: 2 pmol ds-bio DNA per well, crude E. coli extract in protein extraction buffer (HEPES, 100 mM salt per Additional file 1), 1 h, PBS-T washes pH 7.5; details: protein: recombinant; tags: C-terminal V5:His; chain copies: 2; label: 5' biotin (DPI-ELISA); 33P (EMSA)
T2 sequence: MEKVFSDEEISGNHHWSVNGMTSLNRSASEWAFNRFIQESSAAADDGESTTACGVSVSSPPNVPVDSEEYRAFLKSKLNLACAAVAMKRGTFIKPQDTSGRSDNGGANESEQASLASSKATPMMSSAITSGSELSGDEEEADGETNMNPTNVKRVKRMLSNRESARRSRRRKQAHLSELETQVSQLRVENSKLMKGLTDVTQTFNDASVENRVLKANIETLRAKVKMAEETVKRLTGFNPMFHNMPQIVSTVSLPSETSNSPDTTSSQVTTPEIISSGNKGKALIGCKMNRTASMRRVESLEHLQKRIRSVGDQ

AtBPC2 [2] = target: T1, AtBPC2; assay: competition DPI-ELISA; 1000 pmol DNA reduced binding irrespective of sequence; DPI-ELISA: 2 pmol ds-bio DNA per well, crude E. coli extract in protein extraction buffer (HEPES, 100 mM salt per Additional file 1), 1 h, PBS-T washes pH 7.5; details: protein: recombinant; tags: N-terminal His (pET32b-GW)
AtWRKY75DBD = AtWRKY75DBD (Arabidopsis thaliana, UniProt Q9FYA2 58-145); assay: DPI-ELISA; up to 100 ug crude extract (data not shown); DPI-ELISA: 2 pmol ds-bio DNA per well, crude E. coli extract in protein extraction buffer (HEPES, 100 mM salt per Additional file 1), 1 h, PBS-T washes pH 7.5; details: protein: recombinant; tags: C-terminal V5:His; label: 5' biotin (DPI-ELISA); 33P (EMSA)
AtWRKY50DBD = AtWRKY50DBD (Arabidopsis thaliana, UniProt Q8VWQ5 99-173); assay: DPI-ELISA; not corrected for protein concentration in extract; DPI-ELISA: 2 pmol ds-bio DNA per well, crude E. coli extract in protein extraction buffer (HEPES, 100 mM salt per Additional file 1), 1 h, PBS-T washes pH 7.5; details: protein: recombinant; tags: C-terminal V5:His; label: 5' biotin (DPI-ELISA); 33P (EMSA)
AtWRKY33cDBD [3] = target: T3, AtWRKY33cDBD (Arabidopsis thaliana, UniProt Q8S8P5 346-449); assay: DPI-ELISA; DPI-ELISA: 2 pmol ds-bio DNA per well, crude E. coli extract in protein extraction buffer (HEPES, 100 mM salt per Additional file 1), 1 h, PBS-T washes pH 7.5; details: protein: recombinant; tags: C-terminal V5:His; label: 5' biotin (DPI-ELISA); 33P (EMSA)
AtWRKY11DBD [4] = target: T4, AtWRKY11DBD (Arabidopsis thaliana, UniProt Q9SV15 229-325); assay: EMSA; DPI-ELISA: 2 pmol ds-bio DNA per well, crude E. coli extract in protein extraction buffer (HEPES, 100 mM salt per Additional file 1), 1 h, PBS-T washes pH 7.5; details: protein: recombinant; tags: C-terminal V5:His; label: 5' biotin (DPI-ELISA); 33P (EMSA)
AtWRKY33cDBD [5] = target: T3, AtWRKY33cDBD; assay: DPI-ELISA; also at higher protein amounts (data not shown); DPI-ELISA: 2 pmol ds-bio DNA per well, crude E. coli extract in protein extraction buffer (HEPES, 100 mM salt per Additional file 1), 1 h, PBS-T washes pH 7.5; details: protein: recombinant; tags: C-terminal V5:His; label: 5' biotin (DPI-ELISA); 33P (EMSA)
AtWRKY11DBD [6] = target: T4, AtWRKY11DBD; assay: competition DPI-ELISA; up to 50 pmol competitor; DPI-ELISA: 2 pmol ds-bio DNA per well, crude E. coli extract in protein extraction buffer (HEPES, 100 mM salt per Additional file 1), 1 h, PBS-T washes pH 7.5; details: protein: recombinant; tags: C-terminal V5:His
AtBPC2 [7] = target: T1, AtBPC2; assay: competition DPI-ELISA; 100-1000 pmol competitor vs 2 pmol GABio; DPI-ELISA: 2 pmol ds-bio DNA per well, crude E. coli extract in protein extraction buffer (HEPES, 100 mM salt per Additional file 1), 1 h, PBS-T washes pH 7.5; details: protein: recombinant; tags: N-terminal His (pET32b-GW)

T3 sequence (Q8S8P5 346-449): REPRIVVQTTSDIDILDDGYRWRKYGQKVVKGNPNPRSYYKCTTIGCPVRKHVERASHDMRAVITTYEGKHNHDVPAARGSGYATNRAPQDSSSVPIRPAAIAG
T4 sequence (Q9SV15 229-325): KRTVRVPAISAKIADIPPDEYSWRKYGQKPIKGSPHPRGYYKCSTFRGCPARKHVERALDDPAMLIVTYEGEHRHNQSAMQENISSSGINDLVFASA
Chain of AtWRKY75DBD (Q9FYA2 58-145): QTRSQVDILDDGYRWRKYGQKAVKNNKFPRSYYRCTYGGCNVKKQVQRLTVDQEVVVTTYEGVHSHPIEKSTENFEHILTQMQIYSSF
Chain of AtWRKY50DBD (Q8VWQ5 99-173): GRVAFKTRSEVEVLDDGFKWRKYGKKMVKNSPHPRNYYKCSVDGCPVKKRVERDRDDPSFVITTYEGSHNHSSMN

B1: GAm-probe (GAmBio) (dsDNA)
DNA 1: TAATGCAGCAAGTAAGACTACGACTGTTTC
DNA 2: GAAACAGTCGTAGTCTTACTTGCTGCATTA
B1: no binding (AtBPC2 [1]).

B2: C-probe (C-box) (dsDNA)
DNA 1: AATTCTCCCTTATCTGACGTCAGCATCCGG
DNA 2: CCGGATGCTGACGTCAGATAAGGGAGAATT
B2: binds (AtbZIP63).

B3: GAm-probe, non-biotinylated competitor (dsDNA)
DNA 1: B1 DNA 1
DNA 2: B1 DNA 2
B3: no binding (AtBPC2 [2]).

B4: GA-probe (GABio) (dsDNA)
DNA 1: TAAAGGAGAAAGAAAGAGAAAGAGAGTTTC
DNA 2: GAAACTCTCTTTCTCTTTCTTTCTCCTTTA
B4: binds (AtBPC2 [1]).

B5: W2-probe (W2Bio) (dsDNA)
DNA 1: AAATTATTCAGCCATCAAAAGTTGACCAATAAT
DNA 2: ATTATTGGTCAACTTTTGATGGCTGAATAATTT
For B5, the binding result (AtWRKY75DBD) was “no binding”, the binding signal (AtWRKY50DBD) was > 2 fold absorbance vs AtWRKY33cDBD and the binding result (AtWRKY33cDBD [3]) was “binds”.

B6: W2m-probe (W2mBio) (dsDNA)
DNA 1: B5 DNA 1 with G24A, A25C
DNA 2: B5 DNA 2 with T9G, C10T
B6: no binding (AtWRKY11DBD [4]); no binding (AtWRKY75DBD); no binding (AtWRKY33cDBD [5]).

B7: W2m-probe, non-biotinylated competitor (dsDNA)
DNA 1: B5 DNA 1 with G24A, A25C
DNA 2: B5 DNA 2 with T9G, C10T
B7: no binding (AtWRKY11DBD [6]).

B8: GA-probe, non-biotinylated competitor (dsDNA)
DNA 1: B4 DNA 1
DNA 2: B4 DNA 2
B8: binds (AtBPC2 [7]).

B9: Cm-probe (dsDNA)
DNA 1: B2 DNA 1 with A17C, C18A
DNA 2: B2 DNA 2 with G13T, T14G
B9: no binding (AtbZIP63).
